Experiments:
[1] = target: EGFRvIII-Fc fusion antigen (human, UniProt P00533 25-645); test: SPR Biacore T200, EGFRvIII-Fc captured via anti-hu Fc, scFv analyte, 1:1 model;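 note: Multi-cycle kinetics on a CM5 chip in HBS-P+ running buffer, 180 s scFv association then 540 s dissociation, with blank flow cell signals subtracted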
Protocol: Anti-hu Fc IgG CM5-chip was prepared by covalent amine coupling by using the Amine-Coupling-Kit (GE), according to the instructions of the manufacturer. The IgG was diluted in the provided immobilization buffer (10 mM sodium acetate, pH 5.0) to a concentration of 25 μg/ml. For the coupling procedure, the predefined method “Amine” of the Biacore T200 control software was applied. A target level between 5000-10000 RU for all 4 flow cells was reached. The surface of the chip was activated with EDC/NHS before injecting the recombinant protein solutions. Free binding sites on the surface were blocked with ethanolamine. 1×HBS-P+ was selected as a running buffer for the entire coupling procedure.
Flowcell 1 and 3 were blanks. 1×HBS-P+ was used as running buffer for the entire procedure. The scFv antibodies were injected at a flow rate of 30 μL/min for 180 sec over all four flowcells. Signals measured in the flowcell 1 without captured antigen were subtracted from signals in the flowcell 2 to correct the binding curves for background binding. Signals measured in the flowcell 3 without captured antigen were subtracted from signals in the flowcell 4 to correct the binding curves for background binding. After 540 sec dissociation time the chip was regenerated as described below.
The Kinetics of scFv antibodies were determined in MCK (Multi Cycle Kinetic) measurements. For estimation of apparent binding affinities the binding curves were evaluated using the “Kinetic” method included in the Biacore evaluation software. By this method the binding curves are globally fitted by the software using the “Langmuir 1:1 interaction model”.

[2] = target: T1, EGFRvIII expressed on cells (CHO^EGFRvIII, F98^EGFRvIII) (UniProt P00533 25-1210); test: flow cytometry on F98^EGFRvIII cells; scFv detected with anti-His followed by FITC-conj. goat anti-mouse IgG, mean fluorescence intensity
T1 construct: whole, on cells; the vIII deletion must be applied; also called deletion mutant EGFRvIII

[3] = target: T2, wild type EGFR expressed on cells (CHO^EGFR, F98^EGFR) (human, UniProt P00533 25-1210); test: flow cytometry on F98^EGFR cells; scFv detected with anti-His followed by FITC-conj. goat anti-mouse IgG
T2 construct: whole, on cells; also called native EGFR; EGFRwt
Protocol: After a second washing cycle, the cells were incubated with 0.1 mL of 15 μg/mL FITC-conjugated goat anti-mouse IgG antibodies under the same conditions as before. As a control, cells were incubated with the anti-His IgG 13/45/31 followed by the FITC-conjugated goat anti-mouse IgG antibodies without scFvs. The cells were then washed again and resuspended in 0.2 mL of FACS buffer containing 2 μg/mL propidium iodide in order to exclude dead cells. The fluorescence of 1×10⁴ living cells was measured using a Beckman-Coulter FC500 MPL flow cytometer using the MXP software (Beckman-Coulter, Krefeld, Germany) or a Millipore Guava EasyCyte flow cytometer using the Incyte software (Merck Millipore, Schwalbach, Germany). Mean fluorescence intensities of the cell samples were calculated using CXP software (Beckman-Coulter, Krefeld, Germany) or Incyte software (Merck Millipore, Schwalbach, Germany).
In case of analysis with Beckman-Coulter FC500 MPL flow cytometer 0.5×10⁶ cells/staining and in case of Millipore Guava EasyCyte flow cytometer only 0.25×10⁶ cells/staining were used.

[4] = target: T1, EGFRvIII expressed on cells …; test: cell-based or functional assay

Row | Binder | KD improvement factor vs parental scFv Li3G30 [1] [fold] | Kd [1] [nM] | kOFF improvement factor vs parental scFv Li3G30 [1] [fold] | kON improvement factor vs parental scFv Li3G30 [1] [fold] | koff [1] [s⁻¹] | kon [1] [M⁻¹ s⁻¹] | EC50 (read off the curve) [2] [nM] | binding result [3] | EC50 in the cytotoxicity assay (CHO^EGFRvIII target cells) [4] [nM]
1 | scFv 469 (scFv, V domains shown, One-chain scFv, His-tagged) VH: EVQLVQSGAEVKKPGESLKISCKGSGYSFNSYWIGWVRQMPGKGLEWMGIIYPGDSDTRYSPSFQGQVTISADKSISTAYLQWSSLKASDTAMYYCARLGSSWTNDAFDIWGQGTLVTVSS VL: SYELTQPPSVSVSPGQTARITCSGDTLPKQYAYWYQQKPGQAPVLVIYKDSERPSGIPERFSGSSSGTTVTLTISGVQAEDEADYYCQSVDVSGTYVVFGGGTKLTVL | 10.8 | 0.72 | 2 | 5.2 | 0.0006 | 830000 | 2 |  | 
2 | scFv 475 (scFv, V domains shown, One-chain scFv, His-tagged) VH: EVQLVQSGAEVKKPGESLKISCKGSGYSFTSYWIGWVRQMPGKGLEWMGIIYPDDSDTRYSPSFQGQVTISADKSISTAYLQWSSLKASDTAMYYCARLGSSWTNDAFDIWGQGTLVTVSS VL: SYELTQPPSVSVSPGQTARITCSGDALPKQYAYWYQQKPGQAPVLVIYKDTERPSGIPERFSGSSSGTTVTLTISGVQAEDEADYYCQSVDSSGTYVVFGGGTKLTVL | 11.1 | 0.7 | 1.5 | 7.5 | 0.0008 | 1.2e+06 | ~2 | no binding (tested: about 3300 nM) | 
3 | scFv 479 (scFv, V domains shown, One-chain scFv, His-tagged) VH: EVQLVQSGAEVKKPGESLKISCKGSGYDFSSYWIGWVRQMPGKGLEWMGIIYPGDSDTIYSPSFQGQVTISADKSISTAYLQWSSLKASDTAMYYCARLGSSWTNDAFDIWGQGTLVTVSS VL: SYELTQPPSVSVSPGQTARITCSGAALPEQYAYWYQQKPGQAPVLVIYKDSERPSGIPERFSGSSSGTTVTLTISGVQAEDEADYYCQSVDSSGTFYVFGGGTKLTVL | 3.1 | 2.54 | 1.3 | 2.4 | 0.00096 | 380000 |  |  | 
4 | scFv 472 (scFv, V domains shown, One-chain scFv, His-tagged) VH: EVQLVQSGAEVKKPGESLKISCKGSGYSFGYYWIGWVRQMPGKGLEWMGIIYPGDSHTRYSPSFQGQVTISADKSISTAYLQWSSLKASDTAMYYCARLGSSWTNDAFDIWGQGTLVTVSS VL: SYELTQPPSVSVSPGQTARITCSGDALPKQYAYWYQQKPGQAPVLVIYKDTERPSGIPERFSGSSSGTTVTLTISGVQAEDEADYYCQSVDSSGTQVVFGGGTKLTVL | 96.3 | 0.08 | 4 | 23.8 | 0.0003 | 3.8e+06 | ~1 | no binding (tested: about 3300 nM) | 
5 | scFv 476 (scFv, V domains shown, One-chain scFv, His-tagged) VH: EVQLVQSGAEVKKPGESLKISCKGSGYSFTSYWIGWVRQMPGKGLEWMGIIYPGDSDTRYSPSFQGQVTISADKSISTAYLQWSSLKASDTAMYYCARLGSSWTNDAFDIWGQGTLVTVSS VL: SYELTQPPSVSVSPGQTARITCSGDNIPHQYAYWYQQKPGQAPVLVIYKDTERPAGIPERFSGSSSGTTVTLTISGVQAEDEADYYCQSADPTGAYLVFGGGTKLTVL | 5 | 1.56 | 1.1 | 4.3 | 0.0011 | 690000 | ~2 | no binding (tested: about 3300 nM) | 
6 | scFv 477 (scFv, V domains shown, One-chain scFv, His-tagged) VH: EVQLVQSGAEVKKPGESLKISCKGSGYSFSSYWIGWVRQMPGKGLEWMGIIYPGDSDTRYSPSFQGQVTISADKSISTAYLQWSSLKASDTAMYYCARLGSSWTNDAFDIWGQGTLVTVSS VL: SYELTQPPSVSVSPGQTARITCSGDYLPKQYAYWYQQKPGQAPVLVIYKDTERPSGIPERFSGSSSGTTVTLTISGVQAEDEADYYCQSADASGTYYVFGGGTKLTVL | 6 | 1.3 | 0.3 | 18.8 | 0.0038 | 3e+06 | ~2 | no binding (tested: about 3300 nM) | 
7 | scFv 470 (scFv, V domains shown, One-chain scFv, His-tagged) VH: EVQLVQSGAEVKKPGESLKISCKGSGYSFNSYWIGWVRQMPGKGLEWMGIIYPGDSDTRYSPSFQGQVTISADKSISTAYLQWSSLKASDTAMYYCARLGSSWTNDAFDIWGQGTLVTVSS VL: SYELTQPPSVSVSPGQTARITCSGDALDKQYAYWYQQKPGQAPVLVIYKDSERPSGIPERFSGSSSGTTVTLTISGVQAEDEADYYCQSVDSSETYVVFGGGTKLTVL | 6.6 | 1.18 | 2.4 | 2.7 | 0.0005 | 430000 | ~2 | no binding (tested: about 3300 nM) | 
8 | scFv 471 (scFv, V domains shown, One-chain scFv, His-tagged) VH: EVQLVQSGAEVKKPGESLKISCKGSGYSFNSYWIGWVRQMPGKGLEWMGIIYPGDSANRYSPSFQGQVTISADKSISTAYLQWSSLKASDTAMYYCARLGSSWTNDAFDIWGQGTLVTVSS VL: SYELTQPPSVSVSPGQTARITCSGDYLPKQYAYWYQQKPGQAPVLVIYKDTERPSGIPERFSGSSSGTTVTLTISGVQAEDEADYYCQSVDSSHPSVVFGGGTKLTVL | 29.9 | 0.26 | 4.1 | 6.9 | 0.00029 | 1.1e+06 | ~2 | no binding (tested: about 3300 nM) | 
9 | scFv 474 (scFv, V domains shown, One-chain scFv, His-tagged) VH: EVQLVQSGAEVKKPGESLKISCKGSGYSFSHYWIGWVRQMPGKGLEWMGITYPGDVDTRYDPSFQGQVTISADKSISTAYLQWSSLKASDTAMYYCARLGSSWTNDAFDIWGQGTLVTVSS VL: SYELTQPPSVSVSPGQTARITCSGDALPKTYAYWYQQKPGQAPVLVIYKDTERPSGIPERFSGSSSGTTVTLTISGVQAEDEADYYCQSADSSGTYLVFGGGTKLTVL | 16.3 | 0.48 | 0.8 | 20.6 | 0.0016 | 3.3e+06 | ~2 | no binding (tested: about 3300 nM) | 
10 | scFv 473 (scFv, V domains shown, One-chain scFv, His-tagged) VH: EVQLVQSGAEVKKPGESLKISCKGSGYSFSSYWIGWVRQMPGKGLEWMGIIYPGDSDTRYSPSFQGQVTISADKSISTAYLQWSSLKASDTAMYYCARLGSSWTNDAFDIWGQGTLVTVSS VL: SYELTQPPSVSVSPGQTARITCSGHALPSQYAYWYQQKPGQAPVLVIYKDTERPSGIPERFSGSSSGTTVTLTISGVQAEDEADYYCQSVDSSGTSVIFGGGTKLTVL | 11.6 | 0.67 | 1.5 | 7.5 | 0.0008 | 1.2e+06 | ~2 | no binding (tested: about 3300 nM) | 
11 | scFv 478 (scFv, V domains shown, One-chain scFv, His-tagged) VH: EVQLVQSGAEVKKPGESLKISCKGSGYSFNSYWIGWVRQMPGKGLEWMGIIYPGDEDTRYSPSFQGQVTISADKSISTAYLQWSSLKASDTAMYYCARLGSSWTNDAFDIWGQGTLVTVSS VL: SYELTQPPSVSVSPGQTARITCSGDALPKQYAYWYQQKPGQAPVLVIYKDTERPSGIPERFSGSSSGTTVTLTISGVQAEDEADYYCQSVDPSGTYVVFGGGTKLTVL | 49.6 | 0.16 | 5.2 | 8.8 | 0.00023 | 1.4e+06 | ~2 | no binding | 
12 | EGFRvIII/CD3 tandem diabody with parental EGFRvIII binding domain Li3G30 and CD3 domain v64, domain order (i) VL^CD3-VH^EGFRvIII-VL^EGFRvIII-VH^CD3 … (bispecific antibody, part only; not given: CD3 v64 domain and linkers, not shown: small tags and cut ends) chain, part: EVQLVQSGAEVKKPGESLKISCKGSGYSFTSYWIGWVRQMPGKGLEWMGIIYPGDSDTRYSPSFQGQVTISADKSISTAYLQWSSLKASDTAMYYCARLGSSWTNDAFDIWGQGTMVTVSSSYELTQPPSVSVSPGQTARITCSGDALPKQYAYWYQQKPGQAPVLVIYKDSERPSGIPERFSGSSSGTTVTLTISGVQAEDEADYYCQSADSSGTPLIVFGTGTKLTVL |  |  |  |  |  |  |  |  | 0.025
